Results as given in article PMC10397247.

Assays:
P5A-bP = molecular target: T1, P5A-bP; test: two-hybrid library CCNG1;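 also: natural log of median RNA to DNA barcode read ratio; higher means stronger binding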
T1 chain: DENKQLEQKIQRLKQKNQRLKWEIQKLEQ

P9A-bP = molecular target: T2, P9A-bP; test: two-hybrid library CCNG1;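 also: natural log of median RNA to DNA barcode read ratio; higher means stronger binding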
T2 chain: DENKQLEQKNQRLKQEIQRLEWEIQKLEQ

P8A-bP = molecular target: T3, P8A-bP; test: two-hybrid library CCNG1;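 also: natural log of median RNA to DNA barcode read ratio; higher means stronger binding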
T3 chain: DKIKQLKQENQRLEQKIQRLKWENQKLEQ

P3A-bP = molecular target: T4, P3A-bP; test: two-hybrid library CCNG1;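 also: natural log of median RNA to DNA barcode read ratio; higher means stronger binding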
T4 chain: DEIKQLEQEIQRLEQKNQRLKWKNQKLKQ

P6A-bP = molecular target: T5, P6A-bP; test: two-hybrid library CCNG1;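 also: natural log of median RNA to DNA barcode read ratio; higher means stronger binding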
T5 chain: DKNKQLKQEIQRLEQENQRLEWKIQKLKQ

P7A-bP = molecular target: T6, P7A-bP; test: two-hybrid library CCNG1;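 also: natural log of median RNA to DNA barcode read ratio; higher means stronger binding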
T6 chain: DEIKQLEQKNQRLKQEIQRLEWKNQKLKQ

P11A-bP = molecular target: T7, P11A-bP; test: two-hybrid library CCNG1
T7 chain: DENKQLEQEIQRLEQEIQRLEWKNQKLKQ

P2A-bP = molecular target: T8, P2A-bP; test: two-hybrid library CCNG1
T8 chain: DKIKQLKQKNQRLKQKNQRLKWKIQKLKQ

P12A-bP = molecular target: T9, P12A-bP; test: two-hybrid library CCNG1
T9 chain: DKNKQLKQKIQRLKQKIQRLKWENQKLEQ

P1A-bP = molecular target: T10, P1A-bP; test: two-hybrid library CCNG1
T10 chain: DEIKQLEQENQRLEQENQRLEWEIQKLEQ

P4A-bP = molecular target: T11, P4A-bP; test: two-hybrid library CCNG1
T11 chain: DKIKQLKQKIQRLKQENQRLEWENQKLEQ

4H3297-bN = molecular target: T12, 4H3297-bN; test: two-hybrid library CCNG1
T12 chain: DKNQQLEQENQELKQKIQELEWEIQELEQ

4H363-bH = molecular target: T13, 4H363-bH; test: two-hybrid library CCNG1
T13 chain: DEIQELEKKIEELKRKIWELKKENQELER

4H1072-bH = molecular target: T14, 4H1072-bH; test: two-hybrid library CCNG1
T14 chain: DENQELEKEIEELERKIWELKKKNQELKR

4H2568-bH = molecular target: T15, 4H2568-bH; test: two-hybrid library CCNG1
T15 chain: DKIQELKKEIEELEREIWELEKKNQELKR

4H3601-bH = molecular target: T16, 4H3601-bH; test: two-hybrid library CCNG1
T16 chain: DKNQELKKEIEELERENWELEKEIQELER

4H470-bH = molecular target: T17, 4H470-bH; test: two-hybrid library CCNG1
T17 chain: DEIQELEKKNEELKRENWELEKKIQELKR

4H2619-bH = molecular target: T18, 4H2619-bH; test: two-hybrid library CCNG1
T18 chain: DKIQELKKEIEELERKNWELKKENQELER

4H344-bH = molecular target: T19, 4H344-bH; test: two-hybrid library CCNG1
T19 chain: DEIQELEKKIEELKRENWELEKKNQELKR

4H1193-bH = molecular target: T20, 4H1193-bH; test: two-hybrid library CCNG1
T20 chain: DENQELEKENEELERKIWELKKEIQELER

4H1406-bH = molecular target: T21, 4H1406-bH; test: two-hybrid library CCNG1
T21 chain: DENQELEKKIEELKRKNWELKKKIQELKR

4H3592-bH = molecular target: T22, 4H3592-bH; test: two-hybrid library CCNG1
T22 chain: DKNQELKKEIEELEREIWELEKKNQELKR

4H1387-bH = molecular target: T23, 4H1387-bH; test: two-hybrid library CCNG1
T23 chain: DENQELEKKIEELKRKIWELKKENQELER

4H3961-bH = molecular target: T24, 4H3961-bH; test: two-hybrid library CCNG1
T24 chain: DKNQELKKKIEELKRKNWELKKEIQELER

4H1899-bN = molecular target: T25, 4H1899-bN; test: two-hybrid library CCNG1
T25 chain: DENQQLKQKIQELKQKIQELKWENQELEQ

4H2745-bH = molecular target: T26, 4H2745-bH; test: two-hybrid library CCNG1
T26 chain: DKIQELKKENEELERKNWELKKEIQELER

4H4038-bH = molecular target: T27, 4H4038-bH; test: two-hybrid library CCNG1
T27 chain: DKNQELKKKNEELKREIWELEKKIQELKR

4H3907-bH = molecular target: T28, 4H3907-bH; test: two-hybrid library CCNG1
T28 chain: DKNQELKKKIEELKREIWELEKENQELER

4H3070-bN = molecular target: T29, 4H3070-bN; test: two-hybrid library CCNG1; settings: mean of both orientations
T29 chain: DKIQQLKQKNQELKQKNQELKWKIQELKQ

4H2691-bN = molecular target: T30, 4H2691-bN; test: two-hybrid library CCNG1
T30 chain: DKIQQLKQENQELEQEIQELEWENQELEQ

4H3632-bN = molecular target: T31, 4H3632-bN; test: two-hybrid library CCNG1
T31 chain: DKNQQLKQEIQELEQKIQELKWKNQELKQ

4H342-bN = molecular target: T32, 4H342-bN; test: two-hybrid library CCNG1
T32 chain: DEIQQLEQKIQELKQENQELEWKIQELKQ

4H496-bN = molecular target: T33, 4H496-bN; test: two-hybrid library CCNG1
T33 chain: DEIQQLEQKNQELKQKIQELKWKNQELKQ

4H2619-bN = molecular target: T34, 4H2619-bN; test: two-hybrid library CCNG1
T34 chain: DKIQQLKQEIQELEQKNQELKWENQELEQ

4H145-bN = molecular target: T35, 4H145-bN; test: two-hybrid library CCNG1; settings: mean of both orientations
T35 chain: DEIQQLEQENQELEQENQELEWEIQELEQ

P7mSN = molecular target: T36, P7mSN; test: two-hybrid library CCNG1
T36 chain: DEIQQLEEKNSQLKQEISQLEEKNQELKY

P12mSN = molecular target: T37, P12mSN; test: two-hybrid library CCNG1
T37 chain: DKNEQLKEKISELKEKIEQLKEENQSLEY

P9mSN = molecular target: T38, P9mSN; test: two-hybrid library CCNG1
T38 chain: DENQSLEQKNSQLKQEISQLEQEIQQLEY

P3mSN = molecular target: T39, P3mSN; test: two-hybrid library CCNG1
T39 chain: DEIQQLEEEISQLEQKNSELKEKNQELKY

P11mSN = molecular target: T40, P11mSN; test: two-hybrid library CCNG1
T40 chain: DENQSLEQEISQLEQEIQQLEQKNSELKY

P4mSN = molecular target: T41, P4mSN; test: two-hybrid library CCNG1
T41 chain: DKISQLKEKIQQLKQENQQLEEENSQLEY

P1mSN = molecular target: T42, P1mSN; test: two-hybrid library CCNG1
T42 chain: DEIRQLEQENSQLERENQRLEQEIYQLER

P8mSN = molecular target: T43, P8mSN; test: two-hybrid library CCNG1
T43 chain: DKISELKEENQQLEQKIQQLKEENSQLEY

P5mSN = molecular target: T44, P5mSN; test: two-hybrid library CCNG1
T44 chain: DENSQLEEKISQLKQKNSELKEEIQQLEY

P2mSN = molecular target: T45, P2mSN; test: two-hybrid library CCNG1
T45 chain: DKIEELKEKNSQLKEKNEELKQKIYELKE

P6mSN = molecular target: T46, P6mSN; test: two-hybrid library CCNG1
T46 chain: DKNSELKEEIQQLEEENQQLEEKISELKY

P2-AA = molecular target: T47, P2-AA; test: two-hybrid library CCmax; settings: mean of both orientations
T47 chain: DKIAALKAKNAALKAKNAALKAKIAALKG

P2-AA-1HAA-S = molecular target: T48, P2-AA-1HAA-S; test: two-hybrid library CCmax; settings: mean of both orientations
T48 chain: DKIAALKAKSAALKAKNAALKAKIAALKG

P2-AA-1HAA-I = molecular target: T49, P2-AA-1HAA-I; test: two-hybrid library CCmax; settings: mean of both orientations
T49 chain: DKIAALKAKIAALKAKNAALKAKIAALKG

P2-AA-1HAA-Y = molecular target: T50, P2-AA-1HAA-Y; test: two-hybrid library CCmax; settings: mean of both orientations
T50 chain: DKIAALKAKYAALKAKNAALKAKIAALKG

P2-AA-1HAA-E = molecular target: T51, P2-AA-1HAA-E; test: two-hybrid library CCmax; settings: mean of both orientations
T51 chain: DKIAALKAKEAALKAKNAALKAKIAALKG

P2-AA-1HAA-R = molecular target: T52, P2-AA-1HAA-R; test: two-hybrid library CCmax; settings: mean of both orientations
T52 chain: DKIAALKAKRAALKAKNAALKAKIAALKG

P2-AA-1HAA-V = molecular target: T53, P2-AA-1HAA-V; test: two-hybrid library CCmax; settings: mean of both orientations
T53 chain: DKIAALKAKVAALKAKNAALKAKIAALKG

P2-AA-1HAA-T = molecular target: T54, P2-AA-1HAA-T; test: two-hybrid library CCmax; settings: mean of both orientations
T54 chain: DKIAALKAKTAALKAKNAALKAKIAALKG

P2-AA-1HAA-D = molecular target: T55, P2-AA-1HAA-D; test: two-hybrid library CCmax; settings: mean of both orientations
T55 chain: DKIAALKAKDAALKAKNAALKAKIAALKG

P2-AA-1HAA-K = molecular target: T56, P2-AA-1HAA-K; test: two-hybrid library CCmax; settings: mean of both orientations
T56 chain: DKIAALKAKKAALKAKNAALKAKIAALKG

Binder DENKQLEQEIQRLEQEIQRLEWKNQKLKQ [P11A-bP] has an interaction score (P5A-bP) of -0.091, an interaction score (P9A-bP) of 0.853 and an interaction score (P8A-bP) of 0.201. The interaction score (P3A-bP) was -2.11, the interaction score (P6A-bP) was 0 and the interaction score (P7A-bP) was -2.06. For the same binder, the interaction score (P11A-bP) was -0.677, the interaction score (P2A-bP) was -0.486 and the interaction score (P12A-bP) was 1.42. For the same binder, the interaction score (P1A-bP) was -0.431 and the interaction score (P4A-bP) was -0.08.

Work on DENQELEKEIEELERKIWELKKKNQELKR [4H1072-bH] yielded an interaction score (4H3297-bN) of 0.827, an interaction score (4H363-bH) of 0.487 and an interaction score (4H1072-bH) of 0.311. The interaction score (4H2568-bH) was -0.817, the interaction score (4H3601-bH) was 0.621 and the interaction score (4H470-bH) was -1.58. It also gave an interaction score (4H2619-bH) of 1.65, an interaction score (4H344-bH) of 1.31 and an interaction score (4H1193-bH) of 0.426. For the same binder, the interaction score (4H1406-bH) was 0.174, the interaction score (4H3592-bH) was 2.09 and the interaction score (4H1387-bH) was 1.17. For the same binder, the interaction score (4H3961-bH) was 0.132, the interaction score (4H1899-bN) was 1.84 and the interaction score (4H2745-bH) was -0.184. The interaction score (4H4038-bH) was 0.634 and the interaction score (4H3907-bH) was 1.52.

DEIQQLEQENQELEQENQELEWEIQELEQ [4H145-bN] was tested, and the interaction score (4H3070-bN) was 2.01, the interaction score (4H2691-bN) was -1.25 and the interaction score (4H3632-bN) was -1.49. The interaction score (4H342-bN) was -2.65, the interaction score (4H496-bN) was -0.916 and the interaction score (4H2619-bN) was -0.87. It also gave an interaction score (4H145-bN) of -0.563.

Binder DENQSLEQEISQLEQEIQQLEQKNSELKY [P11mSN] has an interaction score (P7mSN) of -1.52, an interaction score (P12mSN) of 1.46 and an interaction score (P9mSN) of -1.27. For the same binder, the interaction score (P3mSN) was -0.972, the interaction score (P11mSN) was 0.11 and the interaction score (P4mSN) was 0.374. For the same binder, the interaction score (P1mSN) was -0.413, the interaction score (P8mSN) was 0.0166 and the interaction score (P5mSN) was -0.097. The interaction score (P2mSN) was -1.32 and the interaction score (P6mSN) was -0.793.

For DEIAALEAEIAALEAENAALEAEIAALEG [P1-AA-1HAA-I], the interaction score (P2-AA) was 2.21, the interaction score (P2-AA-1HAA-S) was 2.03 and the interaction score (P2-AA-1HAA-I) was 2.11. It also gave an interaction score (P2-AA-1HAA-Y) of 2.08, an interaction score (P2-AA-1HAA-E) of 1.82 and an interaction score (P2-AA-1HAA-R) of 2.06. It also gave an interaction score (P2-AA-1HAA-V) of 1.69 and an interaction score (P2-AA-1HAA-T) of 1.91.

With DKNKQLKQENQRLEQKIQRLKWKIQKLKQ [P10A-bP] the interaction score (P5A-bP) was -1.01, the interaction score (P8A-bP) was -1.35 and the interaction score (P3A-bP) was -0.806. It also gave an interaction score (P6A-bP) of -0.83, an interaction score (P7A-bP) of -1.19 and an interaction score (P11A-bP) of 1.25. It also gave an interaction score (P2A-bP) of -1.7, an interaction score (P12A-bP) of -1.01 and an interaction score (P1A-bP) of 0.96. For the same binder, the interaction score (P4A-bP) was -0.87.

Work on DEIAALEAERAALEAENAALEAEIAALEG [P1-AA-1HAA-R] yielded an interaction score (P2-AA) of 1.76, an interaction score (P2-AA-1HAA-S) of 1.28 and an interaction score (P2-AA-1HAA-I) of 1.99. The interaction score (P2-AA-1HAA-Y) was 1.63, the interaction score (P2-AA-1HAA-E) was 0.63 and the interaction score (P2-AA-1HAA-D) was 0.454. It also gave an interaction score (P2-AA-1HAA-K) of 0.734, an interaction score (P2-AA-1HAA-R) of 1.34 and an interaction score (P2-AA-1HAA-V) of 2.29. For the same binder, the interaction score (P2-AA-1HAA-T) was 1.95.
